Assays:
[1] = target: human thyroid-stimulating hormone receptor (TSHR) (human) (UniProt P16473); assay: cell-based or functional assay
[2] = target: human thyroid-stimulating hormone receptor (TSHR) (human, UniProt P16473 21-764); assay: cell-based or functional assay

| Molecule | cAMP levels in HEK-TSHR cells, EC50 [1] [µg/mL] | inhibition of M22 (100 ng/ml)-induced cAMP in HEK-TSHR cells, IC50 [2] [µg/mL] | inhibition of TSH (150 ng/ml)-induced cAMP in HEK-TSHR cells, IC50 [2] [µg/mL] |
| --- | --- | --- | --- |
| recombinant thyroid-stimulating hormone (TSH) (ligand) | 0.168 |  |  |
| thyroid-stimulating antibody M22 | 42.5 |  |  |
| K1-70 thyroid blocking antibody (commercially available K1-70 antibody) (antibody, V domains shown) VH: EVQLVQSGAEVKKPGQSLKISCKASGYSLTDNWIGWVRQKPGKGLEWMGIIYPGDSDTRYSPSFQGQVTISADKSINTAYLQWSSLKASDTAIYYCVGLDWNYNPLRYWGPGTLVTVSS VL: QSVLTQPPSVSAAPGQKVTISCSGSSSDIGSNYVSWYQQFPGTAPKLLIYDNNKRPSAIPDRFSGSKSGTSATLGITGLQTGDEADYYCGTWDSRLGIAVFGGGTQLTVLG |  | 1.38 | 1.18 |

Source: patent US20220227875A1 (UNIVERSITY OF FLORIDA RESEARCH FOUNDATION, published 2022)
